For assay [1], the target named is T1, 14-3-3 epsilon (14-3-3ε, YWHAE) (Mus musculus, UniProt P62259).
T1 construct: full-length mouse 14-3-3ε, His-tagged, from Sf9 cells
T1 sequence (P62259 1-255): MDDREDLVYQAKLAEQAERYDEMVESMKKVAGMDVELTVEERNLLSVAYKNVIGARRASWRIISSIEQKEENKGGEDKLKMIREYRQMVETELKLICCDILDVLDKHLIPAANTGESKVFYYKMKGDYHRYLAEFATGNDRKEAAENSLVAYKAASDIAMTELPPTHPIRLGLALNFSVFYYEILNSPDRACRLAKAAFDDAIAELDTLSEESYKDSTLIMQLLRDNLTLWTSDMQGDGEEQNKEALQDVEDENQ
Briefly: ITC with purified protein; supported by CETSA/ITDRF-CETSA in macrophage lysates and FP displacement of p-TFEB peptide (IC50 […]). Format: binding.

Assay [2] deals with T2, His-14-3-3ε (full-length mouse 14-3-3ε, purified) (mouse, UniProt P62259 1-255).
T2 construct: 14-3-3 epsilon, mouse, full length; also called 14-3-3 epsilon; 14-3-3ɛ; source: Sf9 (Bac-to-Bac baculovirus), purified (Ni-NTA), at least 70% pure
T2 sequence (looked up): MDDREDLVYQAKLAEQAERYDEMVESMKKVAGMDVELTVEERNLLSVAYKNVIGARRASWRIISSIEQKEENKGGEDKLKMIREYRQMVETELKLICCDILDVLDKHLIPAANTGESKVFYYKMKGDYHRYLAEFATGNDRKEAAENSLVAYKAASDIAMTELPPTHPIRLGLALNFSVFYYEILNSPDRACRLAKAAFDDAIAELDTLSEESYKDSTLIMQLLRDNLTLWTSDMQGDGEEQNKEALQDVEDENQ
The assay can be described thus: fluorescence polarisation; direct binding: His-14-3-3ε serially diluted (1-4000 nM) against FITC-labelled peptide (10 nM solution); 25 mM HEPES pH 7.5, 100 mM NaCl, 1 mg/ml BSA, 0.05% CHAPS; 60 min at 25 °C. Particulars: both partners purified.

Primed or numbered codes have the meaning given here. Where no end group is shown, it is not given here. [ ]: non-standard residue; d: D form. pS = N[C@@H](COP(=O)(O)O)C(=O)O; FITC′ = not defined here

In general, Kd refers to the concentration at which binding is half-saturated. Lower therefore signals tighter binding. Regarding `O=C1C[C@@H](c2ccc(O)cc2)Oc2cc(O)cc(O)c21` [NGN, naringenin], the equilibrium dissociation constant (Kd) in assay [1] stood at 30600 ± 7990 nM.

B1: control phosphor-peptide (p-control peptide, MARSHpSYPAKKK) with C-terminal FITC (peptide)
peptide: MARSH[pS]YPAKKK-{FITC′}
notes: control phosphopeptide with the conventional 14-3-3 motif RSXpSXP; source: synthetic peptide
For B1, the Kd in assay [2] was found to be 2.4 nM.

B2: phosphorylated TFEB peptide (p-TFEB peptide, LVGVTSSpSCPADLTQ) with C-terminal FITC (peptide)
peptide: LVGVTSS[pS]CPADLTQ-{FITC′}
notes: also called p-TFEB-FITC; source: synthetic peptide
In the case of B2, in assay [2], the dissociation constant (Kd) was 9.68 nM.

The values above are taken from article PMC8885854, “Targeting macrophage TFEB-14-3-3 epsilon Interface by naringenin inhibits abdominal aortic aneurysm” (Cell Discovery, 2022).
